Patent US20240383990A1 (DIAGONAL THERAPEUTICS, published 2024)
Where two headings read alike, the source gives them in different places.

T1: IL-18 receptor (IL-18Rα and IL-18Rβ) on HEK-Blue IL-18 cells (UniProt Q13478 19-541; O95256 20-599, limits assumed)
T1 sequence (looked up) 1: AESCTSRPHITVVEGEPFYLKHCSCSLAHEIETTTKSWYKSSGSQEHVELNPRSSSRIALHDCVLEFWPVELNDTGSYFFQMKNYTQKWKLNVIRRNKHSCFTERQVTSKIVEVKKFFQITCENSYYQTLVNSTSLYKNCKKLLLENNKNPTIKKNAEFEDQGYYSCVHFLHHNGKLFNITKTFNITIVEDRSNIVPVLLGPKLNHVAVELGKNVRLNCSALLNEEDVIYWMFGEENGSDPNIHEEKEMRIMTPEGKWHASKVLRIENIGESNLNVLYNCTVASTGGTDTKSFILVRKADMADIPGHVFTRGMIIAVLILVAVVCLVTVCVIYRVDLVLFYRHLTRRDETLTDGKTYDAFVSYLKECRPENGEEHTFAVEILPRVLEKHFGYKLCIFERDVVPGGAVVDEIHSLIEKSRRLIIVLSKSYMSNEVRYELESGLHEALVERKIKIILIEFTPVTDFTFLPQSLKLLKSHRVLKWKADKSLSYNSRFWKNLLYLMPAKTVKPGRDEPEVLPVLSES
T1 sequence (looked up) 2: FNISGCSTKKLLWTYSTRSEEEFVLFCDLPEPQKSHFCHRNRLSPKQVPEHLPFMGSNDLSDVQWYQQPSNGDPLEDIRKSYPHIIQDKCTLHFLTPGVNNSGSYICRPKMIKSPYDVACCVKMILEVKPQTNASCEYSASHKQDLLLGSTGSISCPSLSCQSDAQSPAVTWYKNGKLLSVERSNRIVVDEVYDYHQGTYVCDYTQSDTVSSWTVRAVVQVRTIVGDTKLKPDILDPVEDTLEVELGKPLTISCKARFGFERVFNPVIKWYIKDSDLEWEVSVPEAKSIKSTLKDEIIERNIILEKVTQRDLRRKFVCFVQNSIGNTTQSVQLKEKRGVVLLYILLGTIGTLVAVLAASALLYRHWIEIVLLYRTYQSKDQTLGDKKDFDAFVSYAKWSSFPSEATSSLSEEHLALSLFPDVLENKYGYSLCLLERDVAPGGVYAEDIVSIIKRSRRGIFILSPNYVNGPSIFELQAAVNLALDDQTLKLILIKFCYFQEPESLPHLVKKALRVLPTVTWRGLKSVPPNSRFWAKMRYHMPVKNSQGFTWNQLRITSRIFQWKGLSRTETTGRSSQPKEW

B1: PRO003 (bispecific antibody)
chain: EVQLLESGGGLVQPGGSLRLSCAASGFTFSIYAMSWVRQAPGKGLEWVSAISGSGGSTYYADSVKGRFTISRDNSKNTLYLQMNSLRAEDTAVYYCARDFDYWGQGTLVTVTSSGGGGSGGGGSGGGGSQSVLTQPPSASGTPGQRVTISCSGSSSNIGSNYVYWYQQLPGTAPKLLIYGNINRPSGVPDRFSGSKSGTSASLAISGLRSEDEADYYCAAWDDSLNGRVFGGGTKLTVLDKTHTCPPCPAPEAAGAPSVFLFPPKPKDTLMISRTPEVTCVVVDVSHEDPEVKFNWYVDGVEVHNAKTKPREEQYNSTYRVVSVLTVLHQDWLNGKEYKCKVSNKALPAPIEKTISKAKGQPREPQVYTLPPSRDELTKNQVSLTCLVKGFYPSDIAVEWESNGQPENNYKTTPPVLDSDGSFFLYSKLTVDKSRWQQGNVFSCSVMHEALHNHYTQKSLSLSPGGGGGSGGGGSEVQLLESGGGLVQPGGSLRLSCAASGFTFSNAWMNWVRQAPGKGLEWVSSISSSSSYIYYADSVKGRFTISRDNSKNTLYLQMNSLRAEDTAVYYCARAVAAGGMFWGLDQWGQGTLVTVTSSGGGGSGGGGSGGGGSQSVLTQPPSASGTPGQRVTISCSGSRSNIGSNSVHWYQQLPGTAPKLLIYGNSNRPSGVPDRFSGSKSGTSASLAISGLRSEDEADYYCQSYDSSLNDHVVFGGGTKLTVL
B2: DGL288 (bispecific antibody)
chain: EVQLLESGGGLVQPGGSLRLSCAASGFTFSDYYMTWIRQAPGKGLEWVSSISGGSTYYADSRKGRFTISRDNSENTLYLQMNSLRAEDTAVYYCARDFGVAGWFGQYGMDVWGQGTLVTVSSGGGGSGGGGSGGGGSQSVLTQPPSASGTPGQRVTISCTGSSSNIGAGYDVHWYQQLPGTAPKLLIYRSNQRPSGVPDRFSGSKSGTSASLAISGLRSEDEADYYCSSYAGNYNLVFGGGTKLTVLDKGPSVFPLAPEPKSSEVQLLESGGGLVQPGGSLRLSCAASGFTFSSYAMSWVRQAPGKGLEWVANINQDGSEKNYVDSMRGRFTISRDNSKNTLYLQMNSLRAEDTAVYYCAREFDYWGQGTLVTVTSSGGGGSGGGGSGGGGSQSVLAQPPSASGTPGQRVTISCSGSSSNIGSNYVYWYQQLPGTAPKLLIYGNNKRPSGVPDRFSGSKSGTSASLAISGLRSEDEADYYCAAWDDSLNGRVFGGGTKLTVLDKTHTCPPCPAPEAAGAPSVFLFPPKPKDTLMISRTPEVTCVVVDVSHEDPEVKFNWYVDGVEVHNAKTKPREEQYNSTYRVVSVLTVLHQDWLNGKEYKCKVSNKALPAPIEKTISKAKGQPREPQVYTLPPSRDELTKNQVSLTCLVKGFYPSDIAVEWESNGQPENNYKTTPPVLDSDGSFFLYSKLTVDKSRWQQGNVFSCSVMHEALHNHYTQKSLSLSPG
B3: PRO005 (bispecific antibody)
chain: EVQLLESGGGLVQPGGSLRLSCAASGFTFSSYAMSWVRQAPGKGLEWVANINQDGSEKNYVDSMRGRFTISRDNSKNTLYLQMNSLRAEDTAVYYCAREFDYWGQGTLVTVTSSGGGGSGGGGSGGGGSQSVLAQPPSASGTPGQRVTISCSGSSSNIGSNYVYWYQQLPGTAPKLLIYGNNKRPSGVPDRFSGSKSGTSASLAISGLRSEDEADYYCAAWDDSLNGRVFGGGTKLTVLDKTHTCPPCPAPEAAGAPSVFLFPPKPKDTLMISRTPEVTCVVVDVSHEDPEVKFNWYVDGVEVHNAKTKPREEQYNSTYRVVSVLTVLHQDWLNGKEYKCKVSNKALPAPIEKTISKAKGQPREPQVYTLPPSRDELTKNQVSLTCLVKGFYPSDIAVEWESNGQPENNYKTTPPVLDSDGSFFLYSKLTVDKSRWQQGNVFSCSVMHEALHNHYTQKSLSLSPGGGGGSGGGGSEVQLLESGGGLVQPGGSLRLSCAASGFTFSDYYMTWIRQAPGKGLEWVSSISGGSTYYADSRKGRFTISRDNSENTLYLQMNSLRAEDTAVYYCARDFGVAGWFGQYGMDVWGQGTLVTVSSGGGGSGGGGSGGGGSQSVLTQPPSASGTPGQRVTISCTGSSSNIGAGYDVHWYQQLPGTAPKLLIYRSNQRPSGVPDRFSGSKSGTSASLAISGLRSEDEADYYCSSYAGNYNLVFGGGTKLTVL
B4: PRO006 (bispecific antibody)
chain: EVQLLESGGGLVQPGGSLRLSCAASGFTFSDYYMTWIRQAPGKGLEWVSSISGGSTYYADSRKGRFTISRDNSENTLYLQMNSLRAEDTAVYYCARDFGVAGWFGQYGMDVWGQGTLVTVSSGGGGSGGGGSGGGGSQSVLTQPPSASGTPGQRVTISCTGSSSNIGAGYDVHWYQQLPGTAPKLLIYRSNQRPSGVPDRFSGSKSGTSASLAISGLRSEDEADYYCSSYAGNYNLVFGGGTKLTVLDKTHTCPPCPAPEAAGAPSVFLFPPKPKDTLMISRTPEVTCVVVDVSHEDPEVKFNWYVDGVEVHNAKTKPREEQYNSTYRVVSVLTVLHQDWLNGKEYKCKVSNKALPAPIEKTISKAKGQPREPQVYTLPPSRDELTKNQVSLTCLVKGFYPSDIAVEWESNGQPENNYKTTPPVLDSDGSFFLYSKLTVDKSRWQQGNVFSCSVMHEALHNHYTQKSLSLSPGGGGGSGGGGSEVQLLESGGGLVQPGGSLRLSCAASGFTFSSYAMSWVRQAPGKGLEWVANINQDGSEKNYVDSMRGRFTISRDNSKNTLYLQMNSLRAEDTAVYYCAREFDYWGQGTLVTVTSSGGGGSGGGGSGGGGSQSVLAQPPSASGTPGQRVTISCSGSSSNIGSNYVYWYQQLPGTAPKLLIYGNNKRPSGVPDRFSGSKSGTSASLAISGLRSEDEADYYCAAWDDSLNGRVFGGGTKLTVL
B5: PRO004 (bispecific antibody)
chain: EVQLLESGGGLVQPGGSLRLSCAASGFTFSNAWMNWVRQAPGKGLEWVSSISSSSSYIYYADSVKGRFTISRDNSKNTLYLQMNSLRAEDTAVYYCARAVAAGGMFWGLDQWGQGTLVTVTSSGGGGSGGGGSGGGGSQSVLTQPPSASGTPGQRVTISCSGSRSNIGSNSVHWYQQLPGTAPKLLIYGNSNRPSGVPDRFSGSKSGTSASLAISGLRSEDEADYYCQSYDSSLNDHVVFGGGTKLTVLDKTHTCPPCPAPEAAGAPSVFLFPPKPKDTLMISRTPEVTCVVVDVSHEDPEVKFNWYVDGVEVHNAKTKPREEQYNSTYRVVSVLTVLHQDWLNGKEYKCKVSNKALPAPIEKTISKAKGQPREPQVYTLPPSRDELTKNQVSLTCLVKGFYPSDIAVEWESNGQPENNYKTTPPVLDSDGSFFLYSKLTVDKSRWQQGNVFSCSVMHEALHNHYTQKSLSLSPGGGGGSGGGGSEVQLLESGGGLVQPGGSLRLSCAASGFTFSIYAMSWVRQAPGKGLEWVSAISGSGGSTYYADSVKGRFTISRDNSKNTLYLQMNSLRAEDTAVYYCARDFDYWGQGTLVTVTSSGGGGSGGGGSGGGGSQSVLTQPPSASGTPGQRVTISCSGSSSNIGSNYVYWYQQLPGTAPKLLIYGNINRPSGVPDRFSGSKSGTSASLAISGLRSEDEADYYCAAWDDSLNGRVFGGGTKLTVL
B6: DGL208 (bispecific antibody)
chain 1: QVQLVESGGGLVQAGGSLRLSCAASGRTFSKHAMGWFRQAPGKEREFVAAIDWSGGSTYYADSVKGRFTISRDNAKNTVYLQMDSLKPEDTAVYYCAADSYTDYAQLWLPELESEYDYWGQGTLVTVSSPLAPDKTHTCPPCPAPEAAGAPSVFLFPPKPKDTLMISRTPEVTCVVVDVSHEDPEVKFNWYVDGVEVHNAKTKPREEQYNSTYRVVSVLTVLHQDWLNGKEYKCKVSNKALPAPIEKTISKAKGQPREPQVCTLPPSRDELTKNQVSLSCAVKGFYPSDIAVEWESNGQPENNYKTTPPVLDSDGSFFLVSKLTVDKSRWQQGNVFSCSVMHEALHNHYTQKSLSLSPGWSHPQFEK
chain 2: not shown

Key:
Assay in all cases: cell-based or functional assay
[1] = target: T2, ALK1 / BMPRII receptor pair (BMPR Type I receptor ALK1 and BMPR Type II receptor BMPRII) on cells (UniProt P37023 22-503; Q13873 27-1038, limits assumed)
T2 sequence (P37023 22-503 limits assumed, chain 1 of 2): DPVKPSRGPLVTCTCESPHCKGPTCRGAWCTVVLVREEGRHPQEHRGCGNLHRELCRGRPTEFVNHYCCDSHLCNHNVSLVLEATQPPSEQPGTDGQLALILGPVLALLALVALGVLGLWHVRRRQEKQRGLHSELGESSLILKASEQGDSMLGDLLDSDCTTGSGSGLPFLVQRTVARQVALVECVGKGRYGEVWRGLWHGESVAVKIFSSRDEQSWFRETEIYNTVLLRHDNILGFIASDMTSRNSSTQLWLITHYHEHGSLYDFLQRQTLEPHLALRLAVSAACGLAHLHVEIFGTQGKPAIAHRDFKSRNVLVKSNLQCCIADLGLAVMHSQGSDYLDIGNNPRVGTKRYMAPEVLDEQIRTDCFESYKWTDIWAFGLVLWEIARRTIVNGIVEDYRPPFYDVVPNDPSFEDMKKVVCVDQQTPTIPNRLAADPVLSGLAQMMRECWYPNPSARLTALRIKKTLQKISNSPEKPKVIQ
T2 sequence (Q13873 27-1038 limits assumed, chain 2 of 2): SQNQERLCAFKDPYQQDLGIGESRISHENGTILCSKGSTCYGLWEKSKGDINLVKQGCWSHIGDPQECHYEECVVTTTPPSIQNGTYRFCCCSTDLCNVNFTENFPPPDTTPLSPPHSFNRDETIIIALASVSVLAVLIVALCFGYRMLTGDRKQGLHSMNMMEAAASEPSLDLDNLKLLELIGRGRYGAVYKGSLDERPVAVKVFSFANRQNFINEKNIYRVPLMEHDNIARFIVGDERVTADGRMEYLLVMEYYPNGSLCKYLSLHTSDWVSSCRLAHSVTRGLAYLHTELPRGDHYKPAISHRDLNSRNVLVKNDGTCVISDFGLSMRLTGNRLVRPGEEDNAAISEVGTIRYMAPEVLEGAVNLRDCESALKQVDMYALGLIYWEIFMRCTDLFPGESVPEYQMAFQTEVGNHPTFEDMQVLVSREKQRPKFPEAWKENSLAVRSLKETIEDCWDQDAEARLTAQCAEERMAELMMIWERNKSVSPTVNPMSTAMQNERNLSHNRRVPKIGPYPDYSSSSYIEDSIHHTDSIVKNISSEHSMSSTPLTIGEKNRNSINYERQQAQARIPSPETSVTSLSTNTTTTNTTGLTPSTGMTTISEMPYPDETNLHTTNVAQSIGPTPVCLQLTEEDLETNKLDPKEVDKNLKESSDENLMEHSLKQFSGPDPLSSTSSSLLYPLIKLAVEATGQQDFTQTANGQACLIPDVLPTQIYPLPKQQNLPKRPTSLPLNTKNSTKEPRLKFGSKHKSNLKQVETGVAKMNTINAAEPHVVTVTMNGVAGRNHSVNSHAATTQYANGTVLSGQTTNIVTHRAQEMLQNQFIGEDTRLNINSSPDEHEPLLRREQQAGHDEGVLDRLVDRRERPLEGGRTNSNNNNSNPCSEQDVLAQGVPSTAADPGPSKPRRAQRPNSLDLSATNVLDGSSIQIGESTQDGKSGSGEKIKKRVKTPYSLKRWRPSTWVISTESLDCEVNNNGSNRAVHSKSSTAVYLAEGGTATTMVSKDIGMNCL

[2] = target: T2, ALK1 / BMPRII receptor pair (BMPR Type …); remark: listed apart in the source
[3] = target: T2, ALK1 / BMPRII receptor pair (BMPR Type …); remark: listed apart in the source
[4] = target: T1, IL-18 receptor (IL-18Rα and IL-18Rβ) on …

Binder	Agonist activity, % Emax BMP9 [1] [% Emax BMP9]	Agonist activity, EC50 [1] [nM]	Agonist activity, EMAX (RLU) [1] [RLU]	Agonist activity, % Emax BMP9 [2] [% Emax BMP9]	Agonist activity, EC50 [2] [nM]	Agonist activity, EMAX (RLU) [2] [RLU]	pSMAD1 ELISA in HUVEC, RLU 15 minutes, at 0 nM (baseline) [3] [RLU]	pSMAD1 ELISA in HUVEC, RLU 15 minutes, at 0.4 nM [3] [RLU]	pSMAD1 ELISA in HUVEC, RLU 15 minutes, at 2 nM [3] [RLU]	pSMAD1 ELISA in HUVEC, RLU 15 minutes, at 10 nM [3] [RLU]	pSMAD1 ELISA in HUVEC, RLU 60 minutes, at 0 nM (baseline) [3] [RLU]	pSMAD1 ELISA in HUVEC, RLU 60 minutes, at 0.4 nM [3] [RLU]	pSMAD1 ELISA in HUVEC, RLU 60 minutes, at 2 nM [3] [RLU]	pSMAD1 ELISA in HUVEC, RLU 60 minutes, at 10 nM [3] [RLU]	HEK-Blue assay, % human IL-18 [4]
B1	47	0.1	1.25e+06	47	0.1	1.25e+06									
B2	76	0.07	2e+06	76	0.07	2e+06	4.5	4.9	6.5	6.7	4.5	35	26.9	22.7	
B3	35	0.075	931000	35	0.075	931000									
B4	35	0.1	929000	35	0.1	929000									
B5	46	0.5	1.21e+06	46	0.5	1.21e+06									
B6															44 % of human IL18 activity
